Assay results from patent US20240218065A1 (SHENGHE CHINA BIOPHARMACEUTICAL, published 2024).
Residue numbers refer to the chain shown, from its start. Like-named read-outs stand apart in the source and are kept apart here.

T1: Human-NKP30-His (Kactus, cat: NKP-HM430) (human, UniProt O14931 19-138, limits assumed)
T1 construct: also called NKP30 protein; NKP30-his protein; not shown: His tag
T1 sequence (looked up): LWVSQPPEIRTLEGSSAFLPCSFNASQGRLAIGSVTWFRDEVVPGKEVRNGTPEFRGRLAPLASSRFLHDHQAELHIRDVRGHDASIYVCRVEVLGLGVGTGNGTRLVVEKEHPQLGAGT

B1: GPC-3 and CD3 bispecial antibody (ERY974) (bispecific antibody, human IgG4 S228P, kappa, N297A)
chain 1: QVQLVQSGAEVKKPGASVTVSCKASGYTFTDYEMHWIRQPPGEGLEWIGAIDGPTPDTAYSEKFKGRVTLTADKSTSTAYMELSSLTSEDTAVYYCTRFYSYTYWGQGTLVTVSSASTKGPSVFPLAPCSRSTSESTAALGCLVKDYFPEPVTVSWNSGALTSGVHTFPAVLQSSGLYSLSSVVTVPSSSLGTQTYTCNVDHKPSNTKVDKRVESKYGPPCPPCPAPEFRGGPKVFLFPPKPKDTLMISRTPEVTCVVVDVSQEDPEVQFNWYVDGVEVHNAKTKPREEQFASTYRVVSVLTVLHQDWLNGKEYKCKVSNKGLPSSIEKTISKAKGQPREPQVYTLPPSQEEMTKNQVSLTCLVKGFYPSDIAVEWESNGQPENNYKTTPPVLDSDGSFFLYSKLTVDKSRWQEGNVFSCSVMHEALHNHYTQESLSLSP
chain 2: QVQLVESGGGVVQPGGSLRLSCAASGFTFSNAWMHWVRQAPGKGLEWVAQIKDKSQNYATYVAESVKGRFTISRADSKNSIYLQMNSLKTEDTAVYYCRYVHYAAGYGVDIWGQGTTVTVSSASTKGPSVFPLAPCSRSTSESTAALGCLVKDYFPEPVTVSWNSGALTSGVHTFPAVLQSSGLYSLSSVVTVPSSSLGTKTYTCNVDHKPSNTKVDKRVESKYGPPCPPCPAPEFRGGPKVFLFPPKPKDTLMISRTPEVTCVVVDVSQEDPEVQFNWYVDGVEVHNAKTKPREEQFASTYRVVSSLTVLHQDWLNGKEYKCKVSNKGLPSSIEKTISKAKGQPREPQVYTLPPSQKEMTKNQVSLTCLVKGFYPSDIAVEWESNGQPENNYKTTPPVLDSSGSFFLYSKLTVDKSRWQEGNVFSCSVMHEALHNHYTQKSLSLSP
chain 3: DIVMTQSPLSLPVTPGEPASISCRSSQPLVHSNRNTYLHWYQQKPGQAPRLLIYKVSNRFSGVPDRFSGSGSGTDFTLKISRVEAEDVGVYYCGQGTQVPYTFGQGTKLEIKRTVAAPSVFIFPPSDEQLKSGTASVVCLLNNFYPREAKVQWKVDNALQSGNSQESVTEQDSKDSTYSLSSTLTLSKADYEKHKVYACEVTHQGLSSPVTKSFNRGEC
notes: also called anti-CD3 epsilon and anti-GPC3 bispecific antibody
B2: GN15-F (bispecific antibody, human IgG1, kappa)
light: B1 chain 3 with I2V, P28S, Q42L, A48S, R50Q, G94S, G96N, Q98H, Y101P
heavy 1: not shown
heavy 2: QVQLVQSGAEVKKPGASVKVSCKASGYTFTDYEMHWVRQAPGQGLEWMGALDPKTGDTAYSQKFKGRVTLTADKSTSTAYMELSSLTSEDTAVYYCTRFYSYTYWGQGTLVTVSSASTKGPSVFPLAPSSKSTSGGTAALGCLVKDYFPEPVTVSWNSGALTSGVHTFPAVLQSSGLYSLSSVVTVPSSSLGTQTYICNVNHKPSNTKVDKKVEPKSCDKTHTCPPCPGGGGSGGGGSPALLLLLLLRPPATRGITCPPPMSVEHADIWVKSYSLYSRERYICNSGFKRKAGTSSLTECVLNKATNVAHWTTPSLKCIRDPALVHQRPAPPSTVTTAGVTPQPESLSPSGKEGGGGSGGGGSAPELLGGPSVFLFPPKPKDTLMISRTPEVTCVVVDVSHEDPEVKFNWYVDGVEVHNAKTKPREEQYNSTYRVVSVLTVLHQDWLNGKEYKCKVSNKALPAPIEKTISKAKGQPREPQVYTLPPSRDELTKNQVSLTCLVKGFYPSDIAVEWESNGQPENNYKTTPPVLDSDGSFFLASKLTVDKSRWQQGNVFSCSVMHEALHNHYTQKSLSLSPGK
notes: Trifunctional antibody against GPC-3 and NKP30 with IL-15 and IL-15Rα sushi between CH1 and CH2; also called constructed antibody GN15-F; multifunctional antibody
B3: GN15-E (bispecific antibody, human IgG1, kappa)
light 1: EVQLVESGGGLVQPGGSLRLSCAASGITFSRSVMGWFRQAPGKLRELVAGITSDDNTDYADSVKGRFTISRDNSKNTLYLQMNSLRAEDTAVYYCNILPDSRLGWGQGTLVTVSSGGGGSGGGGSGGGGSQVQLVQSGAEVKKPGASVKVSCKASGYTFTDYEMHWVRQAPGQGLEWMGALDPKTGDTAYSQKFKGRVTLTADKSTSTAYMELSSLTSEDTAVYYCTRFYSYTYWGQGTLVTVSSRTVAAPSVFIFPPSDEQLKSGTASVVCLLNNFYPREAKVQWKVDNALQSGNSQESVTEQDSKDSTYSLSSTLTLSKADYEKHKVYACEVTHQGLSSPVTKSFNRGEC
heavy 1: not shown
heavy 2: B2 heavy 2
light 2: B1 chain 3 with I2V, P28S, Q42L, A48S, R50Q, G94S, G96N, Q98H, Y101P
notes: Trifunctional antibody against GPC-3 and NKP30 with IL-15 and IL-15Rα sushi between CH1 and CH2; also called constructed antibody GN15-E; multifunctional antibody
B4: GN15-G (bispecific antibody, human IgG1, kappa)
light 1: QVQLVQSGAEVKKPGASVKVSCKASGYTFTDYEMHWVRQAPGQGLEWMGALDPKTGDTAYSQKFKGRVTLTADKSTSTAYMELSSLTSEDTAVYYCTRFYSYTYWGQGTLVTVSSRTVAAPSVFIFPPSDEQLKSGTASVVCLLNNFYPREAKVQWKVDNALQSGNSQESVTEQDSKDSTYSLSSTLTLSKADYEKHKVYACEVTHQGLSSPVTKSFNRGECGGGGSGGGGSGGGGSGGGGSEVQLVESGGGLVQPGGSLRLSCAASGITFSRSVMGWFRQAPGKLRELVAGITSDDNTDYADSVKGRFTISRDNSKNTLYLQMNSLRAEDTAVYYCNILPDSRLGWGQGTLVTVSS
heavy 1: not shown
heavy 2: B2 heavy 2
light 2: B1 chain 3 with I2V, P28S, Q42L, A48S, R50Q, G94S, G96N, Q98H, Y101P
notes: Trifunctional antibody against GPC-3 and NKP30 with IL-15 and IL-15Rα sushi between CH1 and CH2; also called constructed antibody GN15-G; multifunctional antibody
B5: GN15-C (bispecific antibody, human IgG1, kappa)
light: DVVMTQSPLSLPVTPGEPASISCRSSQSLVHSNRNTYLHWYLQKPGQSPQLLIYKVSNRFSGVPDRFSGSGSGTDFTLKISRVEAEDVGVYYCSQNTHVPPTFGQGTKLEIKRTVAAPSVFIFPPSDEQLKSGTASVVCLLNNFYPREAKVQWKVDNALQSGNSQESVTEQDSKDSTYSLSSTLTLSKADYEKHKVYACEVTHQGLSSPVTKSFNRGECGGGGSGGGGSGGGGSGGGGSEVQLVESGGGLVQPGGSLRLSCAASGITFSRSVMGWFRQAPGKLRELVAGITSDDNTDYADSVKGRFTISRDNSKNTLYLQMNSLRAEDTAVYYCNILPDSRLGWGQGTLVTVSS
heavy 1: not shown
heavy 2: B2 heavy 2
notes: Trifunctional antibody against GPC-3 and NKP30 with IL-15 and IL-15Rα sushi between CH1 and CH2; also called constructed antibody GN15-C; multifunctional antibody

Legend:
Human-GPC3-His [1] = biological target: T2, Human-GPC3-His (human, UniProt P51654 25-559, limits assumed); experiment: ELISA: Human-GPC3-His coated at 0.5 µg/mL, antibody titrated 3-fold from 10 µg/mL, HRP goat anti-human IgG-Fc, OD450-OD570
T2 construct: Coated on the ELISA plate; also called GPC-3 protein; GPC3 protein; not shown: His tag
Procedure: (§1) Human-GPC3-His was diluted to 0.5 μg/mL with PBS buffer at pH 7.4, added into the 96-well ELISA plate at 100 μL per well, coated overnight at 4° C., and blocked with 1% BSA blocking solution for 1 hour. The plate was washed 3 times with PBST, and the constructed antibody was diluted to 10 μg/mL with 0.5% BSA sample diluent as the starting concentration, and then diluted by 3-fold gradient (11 gradients in total) and incubated at 37° C. for 1 h at 100 μL per well. The plate was washed 3 times with PBST, and then HRP-labelled goat anti-human IgG-Fc was diluted with the sample diluent at 1:20000. 100 μL was added into each well, and incubated at room temperature for 1 hour. A negative control (blank well and IgG1 isotype control) and a positive control were set, and the positive control was a GPC-3 and CD3 bispecial antibody from the literature Hs, A, et al. “Engineering a bispecific antibody with a common light chain: Identification and optimization of an anti-CD3 epsilon and anti-GPC3 bispecific antibody, ERY974.” Methods 154 (2019): 10-20. (The GPC-3 and CD3 bispecial antibody sequence consists of SEQ ID No. 22, SEQ ID No. 23, and SEQ ID No. 24). The plate was washed 4 times with PBST, and 100 μL of TMB substrate was added into each well, and incubated at room temperature without light for 10 minutes. 100 μL of 1 M HCl solution was added into each well to terminate the color development reaction. The absorbance value of each well in the 96-well plate was determined by selecting the wavelength of 450 nm and the reference wavelength of 570 nm on a multifunctional enzyme marker, and the absorbance value (OD)=OD₄₅₀ₙₘ−OD₅₇₀ₙₘ. The logarithm of the concentration of the constructed antibody was taken as the abscissa, and the measured absorbance value of each well was taken as the ordinate, and the Sigmoidaldose-response (Variable Slope) method (GraphPad Prism software, GraphPad Software, San Diego, California) was selected for nonlinear regression to obtain the binding curve of the target antibody to the GPC-3 protein.

Human-GPC3-His [2] = biological target: T2, Human-GPC3-His; experiment: as above; remark: listed apart in the source
Procedure: as §1

Human-GPC3-His [3] = biological target: T2, Human-GPC3-His; experiment: as above; remark: listed apart in the source
Procedure: as §1

[4] = biological target: T1, Human-NKP30-His (Kactus, cat: NKP-HM430); experiment: ELISA: Human-NKP30-His coated, antibody titrated 3-fold from 10 µg/mL, HRP goat anti-human IgG-Fc, OD450-OD570
Procedure: (§2) Human-NKP30-His (Kactus, cat: NKP-HM430) was diluted to […] with PBS buffer at pH 7.4, added into the 96-well ELISA plate at 100 μL per well, coated overnight at 4° C., and blocked with 1% BSA blocking solution for 1 hour. The plate was washed 3 times with PBST, and the constructed antibodies were diluted to 10 μg/mL with 0.5% BSA sample diluent as the starting concentration, and then diluted by 3-fold gradient (11 gradients in total). A negative control (blank well and IgG1 isotype control) and a positive control were set, and the positive control was a NKP30 humanized antibody (sequence shown in SEQ ID No. 28), and incubated at 37° C. for 1 h at 100 μL per well. The plate was washed 3 times with PBST, and then HRP-labelled goat anti-human IgG-Fc was diluted with the sample diluent at 1:20000. 100 μL was added into each well, and incubated at room temperature for 1 hour. The plate was washed 4 times with PBST, and 100 μL of TMB substrate was added into each well, and incubated at room temperature without light for 10 minutes. 100 μL of 1 M HCl solution was added into each well to terminate the color development reaction. The absorbance value of each well in the 96-well plate was determined by selecting the wavelength of 450 nm and the reference wavelength of 570 nm on a multifunctional enzyme marker, and the absorbance value (OD)=OD₄₅₀ₙₘ−OD₅₇₀ₙₘ. The logarithm of the concentration of the constructed antibody was taken as the abscissa, and the measured absorbance value of each well was taken as the ordinate, and the Sigmoidaldose-response (Variable Slope) method (GraphPad Prism software, GraphPad Software, San Diego, California) was selected for nonlinear regression to obtain the binding curve of the target antibody to NKP30.

[5] = biological target: T1, Human-NKP30-His (Kactus, cat: NKP-HM430); experiment: as above; remark: listed apart in the source
Procedure: as §2

T2 sequence (P51654 25-559 limits assumed): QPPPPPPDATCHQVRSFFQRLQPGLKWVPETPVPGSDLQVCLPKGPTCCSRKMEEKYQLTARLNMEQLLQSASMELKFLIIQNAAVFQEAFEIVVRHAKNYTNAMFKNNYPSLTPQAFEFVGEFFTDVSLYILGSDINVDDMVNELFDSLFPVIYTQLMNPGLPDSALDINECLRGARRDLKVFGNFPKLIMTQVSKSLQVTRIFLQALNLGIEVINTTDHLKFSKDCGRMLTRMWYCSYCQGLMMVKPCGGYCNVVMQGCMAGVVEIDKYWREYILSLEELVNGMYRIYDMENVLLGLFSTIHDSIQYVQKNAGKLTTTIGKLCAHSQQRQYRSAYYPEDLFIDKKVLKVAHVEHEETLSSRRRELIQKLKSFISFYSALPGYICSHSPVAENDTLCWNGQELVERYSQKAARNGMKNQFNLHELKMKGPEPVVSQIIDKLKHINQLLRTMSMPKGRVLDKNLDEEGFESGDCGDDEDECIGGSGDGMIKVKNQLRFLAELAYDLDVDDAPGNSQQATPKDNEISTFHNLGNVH

| Binder | EC50 (read off the curve) (Human-GPC3-His [1]) | EC50 (read off the curve) (Human-GPC3-His [2]) | EC50 (read off the curve) (Human-GPC3-His [3]) | EC50 (read off the curve) [4] | EC50 (read off the curve) [5] |
| --- | --- | --- | --- | --- | --- |
| B1 | ~0.03 µg/mL | ~0.03 µg/mL | ~0.01 µg/mL |  |  |
| B2 | ~0.02 µg/mL |  |  | ~0.03 µg/mL |  |
| B3 | ~0.06 µg/mL |  |  | ~0.04 µg/mL |  |
| B4 |  |  | ~0.01 µg/mL | ~0.03 µg/mL |  |
| B5 |  | ~0.03 µg/mL |  |  | ~0.05 µg/mL |
